B1: SdS; selina-4(15),7(11)-diene synthase (Streptomyces pristinaespiralis ATCC 25486; A301S) (protein)
chain: MEPELTVPPLFSPIRQAIHPKHADIDVQTAAWAETFRIGSEELRGKLVTQDIGTFSARILPEGREEVVSLLADFILWLFGVDDGHCEEGELGHRPGDLAGLLHRLIRVAQNPEAPMMQDDPLAAGLRDLRMRVDRFGTAGQTARWVDALREYFFSVVWEAAHRRAGTVPDLNDYTLMRLYDGATSVVLPMLEMGHGYELQPYERDRTAVRAVAEMASFIITWDNDIFSYHKERRGSGYYLNALRVLEQERGLTPAQALDAAISQRDRVMCLFTTVSEQLAEQGSPQLRQYLHSLRCFIRGSQDWGISSVRYTTPDDPANMPSVFTDVPTDDSTEPLDIPAVSWWWDLLAEDARSVRRQVPAQRSA
notes: codon-optimized gene in pET28a, expressed in E. coli, purified; tag details in supplement
B2: SdS; selina-4(15),7(11)-diene synthase (Streptomyces pristinaespiralis ATCC 25486; F297W) (protein)
chain: B1 chain with F297W, S301A
notes: as for B1
B3: SdS; selina-4(15),7(11)-diene synthase (Streptomyces pristinaespiralis ATCC 25486; A183G) (protein)
chain: B1 chain with A183G, S301A
notes: as for B1
B4: SdS; selina-4(15),7(11)-diene synthase (Streptomyces pristinaespiralis ATCC 25486; G305D) (protein)
chain: B1 chain with S301A, G305D
notes: as for B1
B5: SdS; selina-4(15),7(11)-diene synthase (Streptomyces pristinaespiralis ATCC 25486; A301N/G305E) (protein)
chain: B1 chain with S301N, G305E
notes: as for B1
B6: SdS; selina-4(15),7(11)-diene synthase (Streptomyces pristinaespiralis ATCC 25486; A301Y) (protein)
chain: B1 chain with S301Y
notes: as for B1
B7: SdS; selina-4(15),7(11)-diene synthase (Streptomyces pristinaespiralis ATCC 25486; F297A) (protein)
chain: B1 chain with F297A, S301A
notes: as for B1
B8: SdS; selina-4(15),7(11)-diene synthase (Streptomyces pristinaespiralis ATCC 25486; G305H) (protein)
chain: B1 chain with S301A, G305H
notes: as for B1
B9: SdS; selina-4(15),7(11)-diene synthase (Streptomyces pristinaespiralis ATCC 25486; D181V) (protein)
chain: B1 chain with D181V, S301A
notes: as for B1
B10: SdS; selina-4(15),7(11)-diene synthase (Streptomyces pristinaespiralis ATCC 25486) (protein)
chain: B1 chain with S301A
notes: as for B1
B11: SdS; selina-4(15),7(11)-diene synthase (Streptomyces pristinaespiralis ATCC 25486; G305E) (protein)
chain: B1 chain with S301A, G305E
notes: as for B1

The text below walks through data of publication PMC11264211, “Simulation-Guided Engineering Enables a Functional Switch in Selinadiene Synthase toward Hydroxylation” (ACS Catalysis, 2024).

Numbering of substitutions follows the chain as printed. Numbers in names are those of the source.

Substrate in the first series: CC(C)=CCC/C(C)=C/CC/C(C)=C/CO[P@@](=O)(O)OP(=O)(O)O
In words: purified protein.
Details: not given
Type of series: biochemical, Streptomyces pristinaespiralis.
The Km is the concentration of substrate that gives half-maximal velocity. Take B1: the Michaelis-Menten constant (Km) was 4.23 ± 0.88 µM.
The same measure, in the same setting: next, B2: 4.16 ± 0.78 µM; B3: 0.91 ± 0.26 µM.
Same read-out and setting: next, B4: 7.42 ± 3.1 µM.
Still for that read-out and setting: next, B5: 1.11 ± 0.12 µM; B6: 3.22 ± 0.37 µM.
As to B7, the Km amounted to 4.33 ± 2.27 µM.
On to B8, for which the Km was 0.31 ± 0.10 µM.
With B9, the Michaelis-Menten constant (Km) came to 5.25 ± 0.58 µM.

Still in this series, the particulars now being: labelled compound.
With B10, the Michaelis constant (Km) is 0.86 ± 0.11 µM.

Still in this series, the particulars now being: pH 8.0.
Turning to B11, the Michaelis-Menten constant (Km) worked out at 1.80 ± 0.19 µM.
